# Measurements published in CN113045647A (NANJING LEGEND BIOTECH CO LTD, dated 2021).
# Molecular target: SARS-CoV-2-RBD(6×His融合蛋白，来自金斯瑞生物公司) (SARS-CoV-2, UniProt P0DTC2 319-541)
# Test: ELISA, E. coli expression supernatant on coated SARS-CoV-2-RBD His
binder,measurement,value
"人源Fab抗体AS182561 (Fab, E. coli expression supernatant) (Fab, V domains shown, not shown: large carriers) VH: EVQLVESGGGLVQPGGSLRLSCAASGFNIYSSYMHWVRQAPGKGLEWVASISPSYSYTSYADSVKGRFTISADTSKNTAYLQMNSLRAEDTAVYYCARYSYYGMDYWGQGTLVTVSA VL: DIQMTQSPSSLSASVGDRVTITCRASQSVSSAVAWYQQKPGKAPKLLIYSASSLYSGVPSRFSGSRSGTDFTLTISSLQPEDFATYYCQQPPWHGLITFGQGTKVEIK",binding result,binds
